Molecular target: AetD nitrile synthase (Aetokthonos hydrillicola)
Test: SEC; Superdex 200 10/300 GL; 100 uL of 10 mg/mL AetD in 25 mM Tris-HCl pH 7.5, 150 mM NaCl; flow rate 0.2 mL/min; mass estimated from protein markers

Substance: AetD nitrile synthase (from UniProt A0A861B387 1-239) (enzyme)
- stoichiometry N: 2

From PMC10654658, “The structural and functional investigation into an unusual nitrile synthase” (Nature Communications, 2023)
